Measured values reported in patent US20120324602A1.

Columns and labels:
Test in all cases: TAP-MS, N-terminal GS tag
[1] = molecular target: TCP-1 (Arabidopsis thaliana T-complex protein 1 alpha subunit) (Arabidopsis thaliana)
[2] = molecular target: T1, actin-related protein 4 (ARP4) (Arabidopsis thaliana)
T1 sequence (Q84M92 1-441, looked up): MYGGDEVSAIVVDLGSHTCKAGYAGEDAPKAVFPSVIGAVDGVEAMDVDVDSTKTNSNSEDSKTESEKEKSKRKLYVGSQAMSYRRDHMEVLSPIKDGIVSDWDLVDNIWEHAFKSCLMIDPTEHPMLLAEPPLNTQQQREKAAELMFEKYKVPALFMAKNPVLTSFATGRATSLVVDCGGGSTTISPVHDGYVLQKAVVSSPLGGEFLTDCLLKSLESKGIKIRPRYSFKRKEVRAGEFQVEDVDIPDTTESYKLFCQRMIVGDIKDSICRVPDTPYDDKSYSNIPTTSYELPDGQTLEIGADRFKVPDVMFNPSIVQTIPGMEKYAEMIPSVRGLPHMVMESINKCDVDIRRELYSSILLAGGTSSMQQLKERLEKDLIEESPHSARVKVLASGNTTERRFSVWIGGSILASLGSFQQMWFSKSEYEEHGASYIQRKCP

[3] = molecular target: chaperonin (AT3G02530) (Arabidopsis thaliana)
[4] = molecular target: chaperonin (AT5G26360) (Arabidopsis thaliana)
[5] = molecular target: chaperonin, similar to At3g03960 (AT3G18190) (Arabidopsis thaliana)
[6] = molecular target: chaperonin, similar to At3g18190 (AT3G03960) (Arabidopsis thaliana)
[7] = molecular target: protein coding (AT5G14240) (Arabidopsis thaliana)
[8] = molecular target: unknown, similar to At5g55210 (AT4G22320) (Arabidopsis thaliana)

Measured: N-GS (times co-purified)

TCP-1 (Arabidopsis thaliana T-complex protein 1 alpha subunit) (Arabidopsis thaliana), sequence (P28769 2-545, one chain of several): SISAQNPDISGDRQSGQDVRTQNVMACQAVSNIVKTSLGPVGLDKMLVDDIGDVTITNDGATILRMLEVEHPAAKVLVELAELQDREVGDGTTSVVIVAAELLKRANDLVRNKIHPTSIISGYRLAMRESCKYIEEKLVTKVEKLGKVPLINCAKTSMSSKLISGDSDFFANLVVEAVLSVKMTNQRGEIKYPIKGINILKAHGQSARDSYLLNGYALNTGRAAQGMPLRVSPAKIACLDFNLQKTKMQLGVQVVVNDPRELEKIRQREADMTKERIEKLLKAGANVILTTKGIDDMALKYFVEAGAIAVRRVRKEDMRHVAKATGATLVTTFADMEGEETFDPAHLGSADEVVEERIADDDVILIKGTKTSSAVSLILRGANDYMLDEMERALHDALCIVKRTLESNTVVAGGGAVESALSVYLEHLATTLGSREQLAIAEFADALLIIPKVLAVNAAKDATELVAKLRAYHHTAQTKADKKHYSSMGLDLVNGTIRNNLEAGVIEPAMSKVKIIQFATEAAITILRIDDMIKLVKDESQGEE

B1: GS-ARP7 (protein, UniProt Q8L4Y5 1-363, looked up)
Actin-related protein 7: MEALVVDAGSKFLKAGAAIPDQSPAMIIPSQMKRMVDDGSSSADNPTTVFEDVTLDPIERGLIRDWDAMEDLLRYVVYTGLGWEEGNEGNILFTDPLCTPKAIREQLVQLMFETFNVSGFYASEQAVLSLYAVGRISGCTVDIGHGKIDIAPVLEGAVQHIASKRFELGGTELTKLFAQELGKTNPSMNLSMSDVEKLKEQYANCAEDEIAYKKTQNCEIEQHTLPDGQVISIGRERYSVGEALFQPSILGLEEHGIVEQLVRIISTVSSENHRQLLENTVLCGGTTSMTGFESRFQKEANLCSSAIRPTLVKPPEYMPENLGMYSAWVGGAILAKVVFPQNQHVTKADYDETGPSVVHRKCF
modifications: N-terminal GS tag
1: [2]
2: all other assays above
